In PMC2995306 (Science (New York, N.Y.), 2009):
Substitutions are numbered along the chain they refer to. Read-outs that look alike come from different tables or passages of the source.

B1: rhesus rotavirus (RRV, serotype G3) VP7 trimer, recombinant (natural protein, UniProt P12476 51-326, looked up)
chain: QNYGINLPITGSMDTAYANSTQEETFLTSTLCLYYPTEAATEINDNSWKDTLSQLFLTKGWPTGSVYFKEYTDIASFSVDPQLYCDYNVVLMKYDATLQLDMSELADLILNEWLCNPMDITLYYYQQTDEANKWISMGSSCTIKVCPLNTQTLGIGCLTTDTATFEEVATAEKLVITDVVDGVNHKLDVTTATCTIRNCKKLGPRENVAVIQVGGSDVLDITADPTTAPQTERMMRINWKKWWQVFYTVVDYVNQIIQAMSKRSRSLNSAAFYYRI
modifications: N-linked glycan at Asn69
B2: disulfide-linked variant of the VP7 trimer (cysteines substituted for Thr276 and Gln305) (natural protein, rhesus rotavirus (RRV, serotype G3), UniProt P12476 51-326, looked up)
chain: B1 chain with T226C, Q255C
modifications: intersubunit disulfide between the cysteines at 276 and 305

Columns and labels:
crystal structure = molecular target: the molecule itself; test: crystal structure
[1] = molecular target: the molecule itself

Protein	stoichiometry N (crystal structure)	stoichiometry N [1]
B1	3	–
B2	–	3
